Columns and labels:
[1] = molecular target: T1, AIMP1 (Aminoacyl-tRNA-synthetase-interacting multifunctional protein 1), purified recombinant (UniProt Q12904 1-312, limits assumed); test: Luminex multiplex bead assay, anti-HA-biotin / SA-PE detection
T1 construct: also called AIMP1(p43); p43
T1 sequence (looked up): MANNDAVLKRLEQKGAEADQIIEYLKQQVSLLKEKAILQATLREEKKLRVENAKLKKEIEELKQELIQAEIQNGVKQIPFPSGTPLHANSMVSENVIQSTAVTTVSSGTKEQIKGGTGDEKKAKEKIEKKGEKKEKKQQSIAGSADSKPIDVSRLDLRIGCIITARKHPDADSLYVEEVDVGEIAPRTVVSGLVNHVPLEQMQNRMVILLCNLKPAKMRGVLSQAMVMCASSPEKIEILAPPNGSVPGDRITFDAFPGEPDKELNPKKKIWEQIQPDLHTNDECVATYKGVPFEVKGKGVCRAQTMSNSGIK

[2] = molecular target: T2, SRS (Seryl-tRNA synthetase), purified recombinant (UniProt P49591 1-514, limits assumed); test: as above
T2 construct: also called 세릴-tRNA 합성효소
T2 sequence (P49591 whole entry): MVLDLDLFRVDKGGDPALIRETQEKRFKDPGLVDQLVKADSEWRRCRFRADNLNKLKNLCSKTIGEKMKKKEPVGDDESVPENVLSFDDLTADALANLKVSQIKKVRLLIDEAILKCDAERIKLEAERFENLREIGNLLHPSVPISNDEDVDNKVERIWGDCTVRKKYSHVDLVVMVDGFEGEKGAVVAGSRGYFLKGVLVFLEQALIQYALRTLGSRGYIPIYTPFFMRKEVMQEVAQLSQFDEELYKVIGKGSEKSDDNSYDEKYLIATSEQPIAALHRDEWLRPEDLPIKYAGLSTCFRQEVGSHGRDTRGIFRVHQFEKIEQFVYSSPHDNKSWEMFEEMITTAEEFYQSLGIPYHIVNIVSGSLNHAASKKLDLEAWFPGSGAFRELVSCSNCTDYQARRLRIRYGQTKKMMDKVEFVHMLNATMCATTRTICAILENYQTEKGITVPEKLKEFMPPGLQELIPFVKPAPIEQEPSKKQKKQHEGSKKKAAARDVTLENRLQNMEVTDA

[3] = molecular target: T3, GRS (Glycyl-tRNA synthetase), purified recombinant (UniProt P41250 55-739, limits assumed); test: as above
T3 construct: also called 글리실-tRNA 합성효소
T3 sequence (looked up): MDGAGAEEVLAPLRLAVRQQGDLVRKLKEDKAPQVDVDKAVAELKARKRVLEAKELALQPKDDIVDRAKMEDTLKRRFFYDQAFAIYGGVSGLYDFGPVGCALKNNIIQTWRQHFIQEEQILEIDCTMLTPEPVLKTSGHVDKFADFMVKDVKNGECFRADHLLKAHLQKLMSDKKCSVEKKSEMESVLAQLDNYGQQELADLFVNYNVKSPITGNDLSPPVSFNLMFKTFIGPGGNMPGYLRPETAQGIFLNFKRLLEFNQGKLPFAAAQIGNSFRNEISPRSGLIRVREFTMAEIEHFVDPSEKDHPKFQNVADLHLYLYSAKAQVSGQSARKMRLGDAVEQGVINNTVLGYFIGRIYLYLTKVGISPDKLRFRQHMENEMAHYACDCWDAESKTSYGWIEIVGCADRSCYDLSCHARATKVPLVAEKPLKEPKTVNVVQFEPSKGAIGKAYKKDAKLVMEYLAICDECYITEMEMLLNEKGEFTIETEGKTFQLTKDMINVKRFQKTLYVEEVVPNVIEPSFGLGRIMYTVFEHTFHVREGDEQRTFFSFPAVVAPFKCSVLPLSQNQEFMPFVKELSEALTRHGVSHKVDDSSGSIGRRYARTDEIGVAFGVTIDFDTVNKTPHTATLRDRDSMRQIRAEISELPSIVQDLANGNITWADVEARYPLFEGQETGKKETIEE

[4] = molecular target: T4, WRS (Tryptophanyl-tRNA synthetase), purified recombinant (UniProt P23381 1-471, limits assumed); test: as above
T4 construct: also called 트립토파닐-tRNA 합성효소
T4 sequence (looked up): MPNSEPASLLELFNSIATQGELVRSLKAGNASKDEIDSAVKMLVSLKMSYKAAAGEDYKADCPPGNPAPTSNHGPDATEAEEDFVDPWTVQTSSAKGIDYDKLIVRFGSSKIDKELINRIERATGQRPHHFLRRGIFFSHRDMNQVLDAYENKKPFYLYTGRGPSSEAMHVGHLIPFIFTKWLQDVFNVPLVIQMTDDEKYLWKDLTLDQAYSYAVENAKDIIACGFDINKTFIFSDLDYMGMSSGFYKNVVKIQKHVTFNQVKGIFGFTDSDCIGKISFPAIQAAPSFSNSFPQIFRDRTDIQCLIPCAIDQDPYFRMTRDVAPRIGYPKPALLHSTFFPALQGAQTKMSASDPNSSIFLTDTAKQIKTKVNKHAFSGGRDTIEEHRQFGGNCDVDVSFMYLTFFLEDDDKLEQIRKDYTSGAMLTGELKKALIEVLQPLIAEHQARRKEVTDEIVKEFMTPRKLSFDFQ

[5] = molecular target: T5, YRS (Tyrosyl-tRNA synthetase), purified recombinant (UniProt P54577 1-528, limits assumed); test: as above
T5 construct: also called 타이로실-tRNA 합성효소
T5 sequence (looked up): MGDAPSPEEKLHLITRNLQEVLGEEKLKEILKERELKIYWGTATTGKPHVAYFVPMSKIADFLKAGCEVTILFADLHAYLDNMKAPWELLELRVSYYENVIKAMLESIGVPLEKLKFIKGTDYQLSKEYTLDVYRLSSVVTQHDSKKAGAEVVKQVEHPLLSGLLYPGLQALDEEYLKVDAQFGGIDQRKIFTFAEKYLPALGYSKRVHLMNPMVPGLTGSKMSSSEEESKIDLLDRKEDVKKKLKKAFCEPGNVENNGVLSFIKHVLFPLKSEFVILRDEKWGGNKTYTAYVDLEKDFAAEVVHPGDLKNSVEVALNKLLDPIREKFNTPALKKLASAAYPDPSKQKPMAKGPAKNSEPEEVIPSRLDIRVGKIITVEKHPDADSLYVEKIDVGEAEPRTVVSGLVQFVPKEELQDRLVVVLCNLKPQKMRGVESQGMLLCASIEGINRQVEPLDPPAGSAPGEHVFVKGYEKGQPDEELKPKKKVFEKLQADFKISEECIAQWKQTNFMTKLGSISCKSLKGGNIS

[6] = molecular target: T6, NRS (Asparaginyl-tRNA synthetase), purified recombinant (UniProt O43776 1-548, limits assumed); test: as above
T6 construct: also called 아스파라기닐딜-tRNA 합성효소
T6 sequence (looked up): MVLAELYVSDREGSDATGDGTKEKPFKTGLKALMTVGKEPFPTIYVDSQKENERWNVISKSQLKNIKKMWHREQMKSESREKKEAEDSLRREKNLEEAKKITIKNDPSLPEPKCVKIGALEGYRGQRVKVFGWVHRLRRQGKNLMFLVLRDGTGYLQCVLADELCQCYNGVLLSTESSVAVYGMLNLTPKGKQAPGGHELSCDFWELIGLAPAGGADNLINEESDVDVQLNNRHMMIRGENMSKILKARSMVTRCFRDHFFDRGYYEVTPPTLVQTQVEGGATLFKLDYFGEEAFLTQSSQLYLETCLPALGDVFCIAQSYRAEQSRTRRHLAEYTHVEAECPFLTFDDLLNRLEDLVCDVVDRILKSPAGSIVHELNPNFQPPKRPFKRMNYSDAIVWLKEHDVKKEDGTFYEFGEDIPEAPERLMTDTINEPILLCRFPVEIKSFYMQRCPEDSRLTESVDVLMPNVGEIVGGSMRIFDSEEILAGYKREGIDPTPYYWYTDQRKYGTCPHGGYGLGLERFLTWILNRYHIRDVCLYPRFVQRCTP

[7] = molecular target: T7, KRS (Lysyl-tRNA synthetase), purified recombinant (UniProt Q15046 1-597, limits assumed); test: as above
T7 construct: also called 리실-tRNA 합성효소
T7 sequence (Q15046 whole entry): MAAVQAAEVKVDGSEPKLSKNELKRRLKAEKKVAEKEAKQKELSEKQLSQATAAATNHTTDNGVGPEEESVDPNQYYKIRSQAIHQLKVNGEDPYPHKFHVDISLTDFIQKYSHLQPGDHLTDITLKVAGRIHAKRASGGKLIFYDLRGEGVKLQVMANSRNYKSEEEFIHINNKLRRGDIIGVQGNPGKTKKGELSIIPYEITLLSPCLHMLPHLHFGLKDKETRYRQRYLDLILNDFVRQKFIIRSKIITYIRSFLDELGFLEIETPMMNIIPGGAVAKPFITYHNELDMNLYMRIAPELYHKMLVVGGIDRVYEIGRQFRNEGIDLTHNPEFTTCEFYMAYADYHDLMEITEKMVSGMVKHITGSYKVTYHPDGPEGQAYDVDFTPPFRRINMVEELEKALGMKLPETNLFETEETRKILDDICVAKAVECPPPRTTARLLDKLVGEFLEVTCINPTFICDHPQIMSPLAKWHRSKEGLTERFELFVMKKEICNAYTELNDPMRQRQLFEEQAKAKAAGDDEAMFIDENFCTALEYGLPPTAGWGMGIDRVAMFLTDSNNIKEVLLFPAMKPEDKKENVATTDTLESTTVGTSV

[8] = molecular target: T8, HRS (Histidyl-tRNA synthetase), purified recombinant antigen (human, UniProt P12081 1-509, limits assumed); test: SPR (ProteOn XPR36), HRS amine-coupled on GLC chip, purified scFv 500-30 nM injected, 25 C
T8 construct: It was immobilised on the GLC chip (SPR), coupled to Luminex beads and used as the ELISA standard; also called HRS 항원; 재조합 HRS 표준물질
T8 sequence (looked up): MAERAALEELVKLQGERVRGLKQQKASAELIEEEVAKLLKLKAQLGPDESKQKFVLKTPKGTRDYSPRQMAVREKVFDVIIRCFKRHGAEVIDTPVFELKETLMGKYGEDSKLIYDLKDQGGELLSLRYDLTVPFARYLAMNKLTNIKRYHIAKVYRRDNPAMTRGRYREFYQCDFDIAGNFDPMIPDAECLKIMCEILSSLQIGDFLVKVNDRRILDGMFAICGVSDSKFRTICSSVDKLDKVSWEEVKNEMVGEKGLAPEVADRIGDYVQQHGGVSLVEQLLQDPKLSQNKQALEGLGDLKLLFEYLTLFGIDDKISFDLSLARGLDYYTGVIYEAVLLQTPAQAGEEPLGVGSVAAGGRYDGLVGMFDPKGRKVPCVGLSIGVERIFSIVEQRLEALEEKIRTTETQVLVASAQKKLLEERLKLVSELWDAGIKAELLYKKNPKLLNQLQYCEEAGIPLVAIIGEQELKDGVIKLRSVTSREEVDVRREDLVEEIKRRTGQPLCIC

B1: anti-HRS scFv Biocon-H1 (scFv)
scFv: EVQLLESGGGLVQPGGSLRLSCAASGFTFSGYYMSWVRQAPGKGLEWVSLISHGGGNIYYADSVKGRFTISRDNSKNTLYLQMNSLRAEDTAVYYCARFPLEFDYWGQGTLVTVSSGGGGSGGGGSGGGGSQSVLTQPPSASGTPGQRVTISCTGSSSNIGSNAVSWYQQLPGTAPKLLIYDDNKRPSGVLDRFSGSKSGTSASLAISGLRSEDEADYYCGTWDDSLSGYVFGGGTKLTVL
notes: Single clone from a human VH3-23/VL1g phage scFv library, expressed in E. coli periplasm; Periplasmic extract was used in the western blot and Luminex assay, Ni-NTA-purified scFv in SPR and ELISA; also called 항 HRS scFv 항체; 본 발명의 항체; not shown: tags from the pComb3X vector (purified on Ni-NTA, detected with anti-HA)
- binding result [1]: no binding
- binding result [2]: no binding
- binding result [3]: no binding
- binding result [4]: no binding
- binding result [5]: no binding
- binding result [6]: no binding
- binding result [7]: no binding
- Kd [8]: 70 nM

Reference: KR20150077770A (dated 2015)
